# Source: patent publication US6506889 (UNIVERSITY TECHNOLOGY, dated 2003)
# Where a chain is given by its changes, count along the chain named.
# T1: wild type LIN-45 Raf (yeast two-hybrid fusion) (C. elegans, UniProt Q07292 1-813)
# T1 construct: Tested against SUR-8 and against LET-60 Ras and its mutants; The constructs for the two tests may differ; not shown: two-hybrid fusion partner
# T1 sequence (looked up): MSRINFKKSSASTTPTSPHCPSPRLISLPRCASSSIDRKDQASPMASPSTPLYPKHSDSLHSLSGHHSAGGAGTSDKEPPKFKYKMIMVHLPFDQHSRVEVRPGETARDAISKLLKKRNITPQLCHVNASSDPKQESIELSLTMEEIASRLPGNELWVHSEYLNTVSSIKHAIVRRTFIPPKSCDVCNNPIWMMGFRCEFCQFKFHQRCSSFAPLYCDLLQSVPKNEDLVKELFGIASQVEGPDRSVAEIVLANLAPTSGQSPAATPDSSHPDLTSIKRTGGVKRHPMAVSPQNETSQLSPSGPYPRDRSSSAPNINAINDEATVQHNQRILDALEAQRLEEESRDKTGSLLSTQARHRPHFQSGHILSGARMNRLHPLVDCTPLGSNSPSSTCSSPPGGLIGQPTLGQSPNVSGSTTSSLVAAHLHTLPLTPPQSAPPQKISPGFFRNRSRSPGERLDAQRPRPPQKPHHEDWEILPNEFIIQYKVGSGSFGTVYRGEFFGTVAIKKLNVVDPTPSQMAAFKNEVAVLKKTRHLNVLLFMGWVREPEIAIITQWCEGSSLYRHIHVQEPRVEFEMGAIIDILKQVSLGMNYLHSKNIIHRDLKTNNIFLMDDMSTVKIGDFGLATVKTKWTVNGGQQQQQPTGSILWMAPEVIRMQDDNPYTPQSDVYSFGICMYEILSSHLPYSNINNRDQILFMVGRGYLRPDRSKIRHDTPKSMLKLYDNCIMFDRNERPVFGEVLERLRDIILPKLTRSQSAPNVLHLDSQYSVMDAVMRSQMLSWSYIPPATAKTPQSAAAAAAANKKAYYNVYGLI
# T2: C. elegans SUR-8 ku242 C233Y (yeast two-hybrid fusion) (C. elegans, UniProt Q22875 1-559)
# T2 sequence: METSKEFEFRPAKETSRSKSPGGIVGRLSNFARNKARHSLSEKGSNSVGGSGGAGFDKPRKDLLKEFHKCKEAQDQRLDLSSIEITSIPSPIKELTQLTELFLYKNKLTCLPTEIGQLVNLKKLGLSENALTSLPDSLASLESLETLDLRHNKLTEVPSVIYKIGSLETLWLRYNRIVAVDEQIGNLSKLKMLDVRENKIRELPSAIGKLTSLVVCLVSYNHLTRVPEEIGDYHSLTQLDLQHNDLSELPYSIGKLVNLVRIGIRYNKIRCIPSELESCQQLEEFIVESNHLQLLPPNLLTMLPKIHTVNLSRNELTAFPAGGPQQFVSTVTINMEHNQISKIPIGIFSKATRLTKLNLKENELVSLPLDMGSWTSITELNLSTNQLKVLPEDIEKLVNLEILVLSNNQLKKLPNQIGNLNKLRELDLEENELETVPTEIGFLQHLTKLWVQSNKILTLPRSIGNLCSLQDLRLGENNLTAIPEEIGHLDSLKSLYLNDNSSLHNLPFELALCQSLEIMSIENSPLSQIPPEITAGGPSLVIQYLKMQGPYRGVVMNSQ
# T3: C. elegans SUR-8 deletion mutant lacking the N-terminal 88 amino acid non-LRR region (C. elegans, UniProt Q22875 89-559)
# T3 construct: Range 89-559 is worked out from 'deletion of the N-terminal 88 amino acid' and the printed length of 559
# T3 sequence: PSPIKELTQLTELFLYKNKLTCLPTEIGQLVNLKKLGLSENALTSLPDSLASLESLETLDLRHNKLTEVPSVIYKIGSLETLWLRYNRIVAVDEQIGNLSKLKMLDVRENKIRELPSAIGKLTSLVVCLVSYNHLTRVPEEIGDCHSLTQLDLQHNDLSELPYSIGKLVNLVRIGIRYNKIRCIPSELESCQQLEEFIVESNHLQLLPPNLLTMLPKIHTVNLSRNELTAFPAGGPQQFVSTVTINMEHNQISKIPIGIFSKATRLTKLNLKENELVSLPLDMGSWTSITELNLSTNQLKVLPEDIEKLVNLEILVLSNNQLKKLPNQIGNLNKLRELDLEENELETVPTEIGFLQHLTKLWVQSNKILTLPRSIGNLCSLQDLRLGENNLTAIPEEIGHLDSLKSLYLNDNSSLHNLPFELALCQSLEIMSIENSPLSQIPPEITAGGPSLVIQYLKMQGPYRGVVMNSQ
# B1: C. elegans SUR-8 fused to the GAL4 activation domain (other, not shown: large carriers)
# chain: T2 sequence with Y233C
# notes: Yeast two-hybrid construct: 1.7 kb sur-8 cDNA cloned in-frame into pACT2; also called Ce SUR-8; wild-type SUR-8
# B2: MEK-2 MEK (yeast two-hybrid fusion) (enzyme, C. elegans, UniProt Q10664 1-387, looked up)
# chain: MSSGKRRNPLGLSLPPTVNEQSESGEATAEEATATVPLEEQLKKLGLTEPQTQRLSEFLQVKEGIKELSEDMLQTEGELGHGNGGVVNKCVHRKTGVIMARKLVHLEIKPSVRQQIVKELAVLHKCNSPFIVGFYGAFVDNNDISICMEYMDGLSLDIVLKKVGRLPEKFVGRISVAVVRGLTYLKDEIKILHRDVKPSNMLVNSNGEIKLCDFGVSGMLIDSMANSFVGTRSYMAPERLTGSHYTISSDIWSFGLSLVELLIGRYPVPAPSQAEYATMFNVAENEIELADSLEEPNYHPPSNPASMAIFEMLDYIVNGPPPTLPKRFFTDEVIGFVSKCLRKLPSERATLKSLTADVFFTQYADHDDQGEFAVFVKGTINLPKLNP
# notes: not shown: two-hybrid fusion partner
# B3: MPK-1 MAP kinase (yeast two-hybrid fusion) (enzyme, C. elegans, UniProt P39745-2 1-376, looked up)
# chain: MADGEAVISTVNNVEEVHGQLFEVAPRYVNLSYIGEGAYGMVASALDTITRDRVAIKKISPFEHQTFCQRTLREIKILNRFKHENIINIQEIIRSETVDSLKDIYIVQCLMETDLYKLLKTQKLSNDHVCYFLYQILRGLKYIHSANVLHRDLKPSNLLLNTTCDLKICDFGLARVTDPQTDHTGFLTEYVATRWYRAPEIMLNSKGYTKSIDVWSVGCILAEMLSNRPLFPGKHYLDQLNLILAVVGSPSNADLQCIINDKARSYLISLPHKPKQPWARLYPGADPRALDLLDKMLTFNPHNRIDIEQALAHPYLEQYYDPGDEPVCEEPFTLEMEFDDLPKEKLKELIWEEAEAHHRRMEAEAAARNNGGQNPV
# notes: as for B2
# B4: wild type LET-60 Ras fused to the GAL4 DNA binding domain (enzyme, UniProt P04386 1-147, looked up)
# chain: MKLLSSIEQACDICRLKKLKCSKEKPKCAKCLKNNWECRYSPKTKRSPLTRAHLTEVESRLERLEQLFLLIFPREDLDMILKMDSLQDIKALLTGLFVQDNVNKDAVTDRLASVETDMPLTLRQHRISATSSSEESSNKGQRQLTVSMTEYKLVVVGDGGVGKSALTIQLIQNHFVEEYDPTIEDSYRKQVVIDGETCLLDILDTAGQEEYSAMRDQYMRTGEGFLLVFAVNEAKSFENVANYREQIRRVKDSDDVPMVLVGNKCDLSSRSVDFRTVSETAKGYGIPNVDTSAKTRMGVDEAFYTLVREIRKHRERHDNNKPQKKKKCQIM
# Tests used:
# [1] = target: T1, wild type LIN-45 Raf (yeast two-hybrid …); assay: yeast two-hybrid
# [2] = target: B1; assay: yeast two-hybrid, His and LacZ reporters
# [3] = target: T2, C. elegans SUR-8 ku242 C233Y (yeast …); assay: yeast two-hybrid
# [4] = target: T3, C. elegans SUR-8 deletion mutant …; assay: yeast two-hybrid
binder,measurement,setting,value
B1,binding result,[1],no binding
B2,binding result,[2],no binding
B3,binding result,[2],no binding
B4,binding result,[3],no binding
same,binding result,[4],no binding
